According to the DeepSol protein solubility set:

Assay: soluble on expression in E. coli; label from the status in PepcDB or PDB records

Row | Sequence | soluble on expression in E. coli
1 | MTTVTVTTEIPPRDKMEDNSALYESTSAHIIEETEYVKKIRTTLQKIRTQMFKDEIRHDSTNHKLDAKHCGNLQQGSDSEMDPSCCSLDLLMKKIKGKDLQLLEMNKENEVLKIKLQASREAGAAALRNVAQRLFENYQTQSEEVRKKQEDSKQLLQVNKLEKEQKLKQHVENLNQVAEKLEEKHSQITELENLVQRMEKEKRTLLERKLSLENKLLQLKSSATYGKSCQDLQREISILQEQISHLQFVIHSQHQNLRSVIQEMEGLKNNLKEQDKRIENLREKVNILEAQNKELKTQVALSSETPRTKVSKAVSTSELKTEGVSPYLMLIRLRK | not soluble
2 | MGSDKIHHHHHHMGQKVHPRGFRLGLSADWQAKWFNEKNYKEWLLEDEEIRKIIKNKYYHAGISEIYVERPDAERINITVKTARPGIIIGRKGSEITSLREELERKFNRRVVINIEEIKTPELDAQLVAESIASRIEKRASYKVAMKRAIMNAMRKGAQGIKVMVAGRLGGAEIARREWYLRGRLPLQKIKAIIDYGTATAWTKYGTIGIKVWIYKGDADI | not soluble
3 | MLNKLMWLTGKAQEDWIEKILHLRQKIWPDYQRIKNDTLFKLYSHYPLYQWLSHYNGEVVAVINSLPVALDQSLDNLPQEGLNWVLSHLESTTPLTQSNYLAAVSVTVNPAYQRLGLSKLLLNRLKASAQEAQYKALIVPARPSQKENY | not soluble
4 | MSLKTPIFAQQTDPALTSAVLGQTAALKKVHKDRKKTQEKIIAAEVAVTASLERIHHVEDKMLDYLSNAQGAMQNLYQIKRAGELVAKEIPQNCSLLLKSVGGNLKGTVIAAMVSDELTDAATQMTALFPFMKQLVTSGKYDVTGDDGKNEKHKVNLLNASERYYIANEVVSRLEAINTNLFILAWQVRTLSWNDLWFSLDPEGWANVMSGKNIIGGIISDWNQGYSLKEGHHHHHH | soluble
5 | MSEYLAAADYLPHSAPMVLVDEVIHVDDEHAHCRVAVSREGILAPFLNAQGHLPAWFGIEIIAQTIGVWSGWHGRQSLGLQEKPRPGMLLGGRGYHCQQAIFPAGSLLDVTVMLVMRDEKIGSFEGEIAIDGEKYASGRLNTYQPDDRELNILLEQGKPL | not soluble
6 | MGSDKIHHHHHHMTKDQQNIERGSVINVEILNAAHGGQGIAKYDGRVIFVKGAFPGDRLSANITHVKKKFARATIASIEMPSPLRMQQRCLAAANGAGCCDFGEFDPEIEGRYKADLVLEQLERLGKVSQPPTCEVVSFGSPTQWRTRMRLGVDAQGRAGGFASQSREVVSGVPCSQGVMGLLDGIVGAEQNVLRFTPGSQVVVVCDDLGQRTVVETQPAPRGKRTESMVKVVEGTGKVSQVVDGVTFELPATGFWQSHKDAAQAYADTIREWFGSLIIRNTDSSLVAWDLYGGCGSFASAILSAVDNHGVVHCVESAPAAVSAGKRALSQLVEDQKIVFHTETVERAMNQLPAPTLVVLDPPRVGAGAETVRAIAQSGPQAAIHIGCDPATFARDIAEWSRNGFILEKLRVFDAFPGTHHCETIGLLTKKN | not soluble
7 | LGFNLKEAASIGIIGGADGPTTIYLTTKLAPHILSATAVAAYSYMSLVPLIQPPVIKALTTPEERRIRMEQLRPVSKREK | not soluble
8 | SRTPAKGNGADPIRLPVRSGIRESRLEFHYHYSNFLVYGEAGSGKTKSIGKWLLSEYMRLGFAGFIYDFKDTDYTRTAYNLIKRHRYPHKFYYVSFDRPERSYRFNPLKVVRDRTELIQLMEDVLLALLPKKEQQNEWVAGGLGILRGVAFRFWDEFPEHCTLPHILAFIMTASARQLSLFLQQNLVSEMLAGAYLKAEGSEKTQASYLSTLCNNLATISQNEEIAYVLSGDDFDFNLIDPETPKLFAVSNNFSKNSVYAPVISMLMTISARQFSMQNRVPFVYFLDEMTTVNIKNFETLPSVLREYKAAFILLTQSGAKLENLYGKLDRSSVEANFGNMFLGRTKDVEALKYYPLFFGKEEKERRSRSSGKSGASSSSSVTVSSQKEDIYQGKDFADLEPGEFIGSATRANVSYFKVKLEMYDDRNEEPLPDVRVLEPGELGRNFARILEEVRELFPCE | not soluble
9 | MEEKVYLDKLAKRDIKPTAIRLLILKSMMEAGRAVSQLDLETLLDTVDKSTISRTITLFLSHHLIHSIDDGSGSWKYAVCDDSCNCVLKDLHSHFYCEKCHRTFCLEKIHIPVIDLPKGFTLHSVNYVVKGVCAECSKV | not soluble
10 | MQEAVNSALPGDVIIVKPGSYYDHVTVTTNNLVIRSESGNPEDTVIEGYNPTADVFTIEADNITLEGFTIMGAGANCSGLCLHGCTNCLIDSNTFFNDFRGIYLKSSLNNDILNNIVIKGGRGISIEESNHNSVSKNKVSECGYGINLLNSKDNRISKNTVAGNKDYGILVQSSDSNTFSRNNASENGRGIHIGNSDGNTLSNNKISLNEVHGLFVCPKSDKNLVYNNYFSNTLNVEANNGTSNVYHKSRTKGENIVGGPYIGGNYWATPEGSGFSETAADNNGDGIADEKYLFETSDYFDPLPLIAYKPPEPVLPTANLSINTPEDYAPLSVQFTDLSENATSRTWDFENDGVIDSPDETPVYTYPSPGTYTVNLTAACENGTDTKLITINVGENNVAEIQPESAPGEESMSTTGSQAEQNSEQEGISSIPGFEMLYGIFCLLAIFLYKESTKLEHHHHHH | not soluble
11 | GSHMLGERLGIPAPRRIEAFDNSNIYGADPVSALVVFLDGKPAKKEYRKYKVKTVAGPNDYETMREVVRRRYTRVLKEGLPLPDLIIIDGGKGHLSAVRDVLENELGLDVPLAGLAKDEKHRTSELLAGDPPDVVPLDRQSQEFYLLQRIQDEVHRFAVMFHRKTRQKTMFHSVLDDIPGVGEKRKKALLNYFGSVKKMKEATVEELQRANIPRAVAEKIYEKLHE | soluble
12 | MNHSRTIPVVNIAGPGSQPEEEDFNFLPIPAGINLPLTPVLPEQALPAELRVARHILTTLIRDMDNPVATLPFPLSYKLNATEQQNSGLLDQLLGEGEISARVLLSDGKEQRIQETVFTGVWRVREYNADQQRVADEIIIGPIPESIWQTHPQPPITPELPPQPAGLMNGAFIAHEIAERVKQPVKEPHIINLTLLPVNDADREYLDHFLGEGCSAIFSRGYGKCRIVSTHFPGVWRVNYFNDMNTLLQDMIEIADIPDIAVAGIDDIEDAYAGLKNTLEWLKEYPVTENEPVVRMECKVCWWVYDPALGDDVWQIPPGVPFNQLPDYWCCPVCETSKSGFMVIDEGNSSCKD | not soluble
13 | MAHHHHHHMILRTAGASNVYSVFAYPGTGKARDMLTTETADTSGSESGNLTNVRARHCAHFQFNKMCNLGESCNFIHSLVPYVQRLSMSSQGPLYNSIVTQRPLLMPSTSMAHFSRFPNGNNNNGVVSSYSMEFMQPSMLHVSPQTQQQQQQQKQQQKQQQKQLHQQPQHAMPPPPPTVSHLIPSPQPSEHLMYQSNMSMMSLPMYMSSPISSTWDGVRYGANYQ | not soluble
14 | MVSIRRSFEAYVDDMNIITVLIPAEQKEIMTPPFRLETEITDFPLAVREEYSLEAKYKYVCVSDHPVTFGKIHCVRASSGHKTDLQIGAVIRTAAFDDEFYYDGELGAVYTADHTVFKVWAPAATSAAVKLSHPNKSGRTFQMTRLEKGVYAVTVTGDLHGYEYLFCICNNSEWMETVDQYAKAVTVNGEKGVVLRPDQMKWTAPLKPFSHPVDAVIYETHLRDFSIHENSGMINKGKYLALTETDTQTANGSSSGLAYVKELGVTHVELLPVNDFAGVDEEKPLDAYNWGYNPLHFFAPEGSYASNPHDPQTRKTELKQMINTLHQHGLRVILDVVFNHVYKRENSPFEKTVPGYFFRHDECGKPSNGTGVGNDIASERRMARKFIADCVVYWLEEYNVDGFRFDLLGILDIDTVLYMKEKATKAKPGILLFGEGWDLATPLPHEQKAALANAPRMPGIGFFNDMFRDAVKGNTFHLKATGFALGNGESAQAVMHGIAGSSGWKALAPIVPEPSQSINYVESHDNHTFWDKMSFALPQENDSRKRSRQRLAVAIILLAQGVPFIHSGQEFFRTKQGVENSYQSSDSINQLDWDRRETFKEDVHYIRRLISLRKAHPAFRLRSAADIQRHLECLTLKEHLIAYRLYDLDEVDEWKDIIVIHHASPDSVEWRLPNDIPYRLLCDPSGFQEDPTEIKKTVAVNGIGTVILYLASDLKSFA | soluble
15 | MAFRMSRDHADFVAHGGTEWDDGAFVNVKKIKIFHDWAGITLVQFDYIDGTGAIVSGLDHGTEPFQFDREHGRVPVEGARAEFWLRDDEYITIVTAFGGYCVRKIEFITNKRTFDFGGFN | soluble
16 | MSLSRGAGEAAYRQRLVAVGDLHGDIDNAKKTLQMARIIDDDSKWVASTDILVQTGDIVDRGAYADDIYRLMQSLRGQAASQGGKVVSILGNHEVMNAIGDWRYVTKGDIARFGGTKSRQHALSAEGWLGQEWLANYSTTALVPISPYPSSPTFSFTHGSLRPSYANLTPYPAAINDLGHSLLTKALTPPMAPPYPPNPYSGLPKGTTHEEADLYAEGGPLWWRGLAEREEAQVCEWAKNLKQKIGARRIIGGHTPNFEKIVARCNASVIIIDTGISSAYGGVLSALEIVYTLTPVDRRGRDHSQDPLLLSTSSESIAGLKGRFVEREEVHAIYEHSRKWLALEEREVVLDEGHHHHHH | not soluble
17 | MINMKFFNRVEEIKEILSILEEEPNLIYFIYGPINSGKTALINEIINNRLDKNKYVVFYIDLREIFISKYDEFEAKLRATKTFGFRLIIEVLFEEYEDDKKPIEIIRSLIKDAPSLCGIPTPKNTLEEILKKKTTKNVFKYITNILMDIKREGKQPIIIIDELQKIGDMKINGFLIYELFNYFVSLTKHKHLCHVFCLSSDSLFIERVYNEAMLKERVDYILVDDFDKETALKFIDFLSEEILNKKLSDEDKELIYSYVGGKPILIINVIGKLKHKNLKDVLNILLMDEISKLKDFLSNLDYIKPKVNIEEEIIEIRKEDIINALKLFKGKYEIEVDKIPKAVYVYLVKKNILFLYPQRGTLKPQSFLVWNAIKRVL | not soluble
18 | MGSDKIHHHHHHMRPDMFIGSYERSGGHGLYPAWLDSLGAISLGPPDTRIGNASFGLLDHRCGTAWFVEEQEPGAVSAWQWDDQVWTPLGRIGTGGASPCHLVRSPDGTLLAVANNDGGVAALVELDPETGALGKLAGVLRNEGGARSHAGCVRFAGDRIFIADRGLDRVLSCEYGAAGFGEVRTAFAAPRGSGPRQLLLRDDLALLACELTARLMLLRATGEGFELLDDIATDAAATPGNLAGHLAFQGDRIFVSNRGADTVASFRIDGERLRREDCWSSHGRSPRHFAMCGSYLVVTNEQDGIVCVLDIANGGRIAGTAIVPGAAFVLAMPL | not soluble
19 | MNLHTKTWVQRLPVPIDVAWDFFSQPGNLARITPPEMMLKAEGGNAGTAIYEGMKLNFVLYPFMMIPVRWTTEIMKVSKPDFFEDRQLSGPYEQWYHRHLFRDIEGGTEMTDIVEYALPFDLFGEVVEALIVGPRLDEVFEYRRCRVAEILGEMASETRLEHHHHHH | soluble
20 | MSLCAVTLMACNTAPHSLASSLPVPDALLFPQVQPEYKVAPGDLLLIKVFQVDDLERQVRVDNTGRITLPLLGSIEVSNKGAAELETLIANRYRSDYLQDPQVSVFIQEANARRVTVTGAVTEPGTYPLIGSNLTLQQVIAQAKGINTLASLQNVVVFRTVKGQKMLARFDLARIERGKDPDPEIYPGDLVVVYRSDMRLFLRTLVEITPFVMVWRAYREGHHHHHH | soluble
21 | MAAAAAAKIAPSMLSSDFANLAAEADRMVRLGADWLHMDIMDGHFVPNLTIGAPVIQSLRKHTKAYLDCHLMVTNPSDYVEPLAKAGASGFTFHIEVSRDNWQELIQSIKAKGMRPGVSLRPGTPVEEVFPLVEAENPVELVLVMTVEPGFGGQKFMPEMMEKVRALRKKYPSLDIEVDGGLGPSTIDVAASAGANCIVAGSSIFGAAEPGEVISALRKSVEGSQNKS | soluble
